Where no end group is shown, it is not given here. [ ]: non-standard residue; d: D form. The star is where a group is joined. hArg = N=C(N)NCCCC[C@H](N)C(=O)O; Nle = CCCC[C@H](N)C(=O)O; Orn = NCCC[C@H](N)C(=O)O; Hexanoyl = CCCCCC(=O)*; Aib = CC(C)(N)C(=O)O
B1: P322 (peptide)
peptide: Hexanoyl-HSDAVFTDNYTRLR[Aib]QIAA[Aib]KYLQSIKNKRYGGPSSGAPPPS
modifications: ends and bridges not checked
B2: P323 (peptide)
peptide: Hexanoyl-HSDAVFTDNYTRLR[Aib]QKAA[Aib]KYLQSIKNKRYGGPSSGAPPPS
modifications: ends and bridges not checked
B3: P352 (peptide)
peptide: HSDAVFTDNYTRLRXQVAAXKYLQSIXXGGPSSGAPPPS
modifications: N-terminal hexanoyl (C6); Aib at 15, 20; Orn at 27, 28
B4: P264 (peptide)
peptide: Hexanoyl-HSDAVFTDNYTRLR[Aib]QVAAK[Aib]YLQSIKNKRYGGPSSGAPPPS
modifications: ends and bridges not checked
B5: P284 (peptide)
peptide: Hexanoyl-HSDAVFTDNYTRLR[Aib]QLAAK[Aib]YLQSIKNKRYGGPSSGAPPPS
modifications: ends and bridges not checked
B6: P305 (peptide)
peptide: Hexanoyl-HSDAVFTDNYTRL[hArg]KQVAAKKYLQSIKNKRYGGPSSGAPPPS
modifications: ends and bridges not checked
B7: P338 (peptide)
peptide: HSDAVFTDNYTXLRXQVAAXKYLQSIXNXXYGGPSSGAPPPS
modifications: N-terminal hexanoyl (C6); hR at 12, 27, 29, 30; Aib at 15, 20
B8: P326 (peptide)
peptide: HSDAVFTDNYTXLRXQVAAXKYLQSIXNXGGPSSGAPPPS
modifications: N-terminal hexanoyl (C6); Orn at 12, 27, 29; Aib at 15, 20
B9: P308 (peptide)
peptide: Hexanoyl-HSDAVFTDNYTRL[hArg][Orn]QVAAKKYLQSIKNKRYGGPSSGAPPPS
modifications: ends and bridges not checked
B10: P325 (peptide)
peptide: Hexanoyl-HSDAVFTDNYTRLR[Aib]Q[Nle]AA[Aib]KYLQSIKNKRYGGPSSGAPPPS
modifications: ends and bridges not checked

Tests used:
[1] = Rat serum stability studies (remaining active peptide by DiscoveRx cAMP on CHO-VPAC2 cells); format: in vitro ADME
In short: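 EC50 from a DiscoveRx cAMP read-out on CHO-VPAC2 cells indexes how much peptide stays active after 18 h in rat serum at 37° C without aprotinin, against an aprotinin-protected 4° C aliquot.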

human VPAC1 = target: T1, human VPAC1 (Homo sapiens, UniProt P32241); assay: Filter binding assay, membranes of cells transiently transfected with human VPAC1, 125I-labeled VIP tracer (Table 2); set-up: expressed in transfected cells; details: read-out: Human VPAC1 Receptor Binding
T1 sequence (P32241 31-457): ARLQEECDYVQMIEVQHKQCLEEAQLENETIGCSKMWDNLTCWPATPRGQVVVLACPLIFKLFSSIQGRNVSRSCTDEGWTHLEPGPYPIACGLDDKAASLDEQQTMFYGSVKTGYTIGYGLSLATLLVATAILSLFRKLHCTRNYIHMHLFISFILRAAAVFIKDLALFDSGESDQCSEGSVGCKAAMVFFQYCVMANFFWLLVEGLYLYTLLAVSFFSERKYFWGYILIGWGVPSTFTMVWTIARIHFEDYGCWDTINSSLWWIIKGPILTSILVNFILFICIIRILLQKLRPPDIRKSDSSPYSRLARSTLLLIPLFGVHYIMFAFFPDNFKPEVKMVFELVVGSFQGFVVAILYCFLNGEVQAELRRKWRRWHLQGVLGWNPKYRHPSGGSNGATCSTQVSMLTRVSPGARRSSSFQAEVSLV
In short: (§1)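 Membranes 2.5 μg/well; tracer ~40000 cpm; buffer 25 mM HEPES pH 7.4, 0.5% protease-free BSA; 1 h incubation, shaking. Glass-fibre filtration (0.5% polyethyleneamine presoak, 0.2% BSA block), 3× HEPES wash, dry 1 h at 60° C, scintillation count.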

rat VPAC2 receptor [2] = target: T2, rat VPAC2 receptor (Rattus norvegicus, UniProt P35000); assay: DiscoveRx in vitro potency, CHO-PO cells transiently transfected with rat VPAC 2 receptor DNA; format: cell-based; set-up: expressed in transfected cells; host or cells: CHO-PO, transient
T2 sequence (P35000 23-437): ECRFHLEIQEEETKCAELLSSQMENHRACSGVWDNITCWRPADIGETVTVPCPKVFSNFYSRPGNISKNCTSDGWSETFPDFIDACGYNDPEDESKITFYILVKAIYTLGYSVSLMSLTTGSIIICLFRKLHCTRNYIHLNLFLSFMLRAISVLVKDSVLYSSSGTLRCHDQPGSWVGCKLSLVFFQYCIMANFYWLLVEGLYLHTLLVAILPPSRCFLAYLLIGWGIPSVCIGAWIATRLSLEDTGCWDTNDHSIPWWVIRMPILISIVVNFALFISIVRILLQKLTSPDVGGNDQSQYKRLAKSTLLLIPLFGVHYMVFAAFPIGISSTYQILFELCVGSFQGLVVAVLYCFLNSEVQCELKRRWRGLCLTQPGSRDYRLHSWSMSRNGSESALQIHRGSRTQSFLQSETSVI
Protocol: Also, the cells are washed twice. […] The stimuli are present for 30 minutes. Then, the assay buffer is gently removed.

human VPAC2 [3] = target: T3, human VPAC2 (Homo sapiens, UniProt P41587); assay: Filter binding assay, membranes of stable VPAC2 cell line, 125I-labeled VIP tracer (Table 2); details: read-out: Human VPAC2 Receptor Binding
T3 construct: expressed in transfected cells
T3 sequence (P41587 24-438): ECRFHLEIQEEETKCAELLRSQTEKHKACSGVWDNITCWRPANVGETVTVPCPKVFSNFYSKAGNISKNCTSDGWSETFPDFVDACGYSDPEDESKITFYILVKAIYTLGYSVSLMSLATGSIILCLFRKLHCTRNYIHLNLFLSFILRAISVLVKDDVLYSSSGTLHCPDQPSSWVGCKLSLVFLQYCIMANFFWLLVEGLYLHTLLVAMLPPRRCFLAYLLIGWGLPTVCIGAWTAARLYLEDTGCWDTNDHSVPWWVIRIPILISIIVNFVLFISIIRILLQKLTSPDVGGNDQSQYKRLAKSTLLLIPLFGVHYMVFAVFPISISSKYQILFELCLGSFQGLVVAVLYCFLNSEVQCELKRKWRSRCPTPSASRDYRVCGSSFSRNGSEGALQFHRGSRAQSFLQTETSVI
In short: as §1

human VPAC2 [4] = target: T3, human VPAC2; assay: Alpha screen cAMP in vitro potency, human VPAC2 receptor; format: cell-based; details: cAMP generation; single result from two analyses performed in a single run; read-out: Human VPAC2 Receptor: Alpha Screen EC50
In short: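 Cells were detached with enzyme-free dissociation buffer, washed into stimulation buffer and used at 50,000 cells per data point. Stimuli and AlphaScreen acceptor beads were added for 60 minutes, then lysis buffer with donor beads for 60 to 120 minutes; the AlphaScreen signal reports intracellular cAMP.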

rat VPAC1 receptor = target: T4, rat VPAC1 receptor (rat, UniProt P30083 31-459); assay: cell-based or functional assay
T4 sequence (looked up): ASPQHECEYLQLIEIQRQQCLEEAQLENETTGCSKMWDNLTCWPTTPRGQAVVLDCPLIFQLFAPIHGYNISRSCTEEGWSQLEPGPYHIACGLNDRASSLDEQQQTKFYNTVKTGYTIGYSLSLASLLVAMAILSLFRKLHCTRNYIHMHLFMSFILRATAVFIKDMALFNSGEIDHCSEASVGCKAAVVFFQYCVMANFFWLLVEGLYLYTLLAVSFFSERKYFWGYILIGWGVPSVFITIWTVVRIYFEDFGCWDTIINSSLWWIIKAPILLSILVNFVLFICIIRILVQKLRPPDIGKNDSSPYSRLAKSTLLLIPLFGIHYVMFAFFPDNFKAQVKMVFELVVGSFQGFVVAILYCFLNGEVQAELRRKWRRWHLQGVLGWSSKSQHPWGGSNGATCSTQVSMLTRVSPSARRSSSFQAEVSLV

rat VPAC2 receptor [5] = target: T5, rat VPAC2 receptor (rat, UniProt P35000 23-437); assay: cell-based or functional assay
T5 sequence (looked up): T2 sequence (P35000 23-437)

human VPAC2 receptor = target: T6, human VPAC2 receptor (human, UniProt P41587 24-438); assay: cell-based or functional assay
T6 sequence (looked up): T3 sequence (P41587 24-438)

| Molecule | Rat Serum Stability (estimated purity in % after 18 hours) [1] | IC50 (human VPAC1) | EC50 (rat VPAC2 receptor [2]) | IC50 (human VPAC2 [3]) | EC50 (human VPAC2 [4]) | Rat Serum Stability (Estimated purity in % after 72 hours) [1] | EC50 cAMP, DiscoveRx (rat VPAC1 receptor) | EC50 cAMP, DiscoveRx (rat VPAC2 receptor [5]) | EC50 cAMP, Alpha Screen (human VPAC2 receptor) |
| --- | --- | --- | --- | --- | --- | --- | --- | --- | --- |
| CCCCCC(=O)N[C@@H](Cc1c[nH]cn1)C(=O)N[C@@H](CO)C(=O)N[C@@H](CC(=O)O)C(=O)N[C@@H](C)C(=O)N[C@H](C(=O)N[C@@H](Cc1ccccc1)C(=O)N[C@H](C(=O)N[C@@H](CC(=O)O)C(=O)N[C@@H](CC(N)=O)C(=O)N[C@@H](Cc1ccc(O)cc1)C(=O)N[C@H](C(=O)N[C@@H](CCCCNC(=N)N)C(=O)N[C@@H](CC(C)C)C(=O)N[C@@H](CCCNC(=N)N)C(=O)NC(C)(C)C(=O)N[C@@H](CCC(N)=O)C(=O)N[C@H](C(=O)N[C@@H](C)C(=O)N[C@@H](C)C(=O)NC(C)(C)C(=O)N[C@@H](CCCCN)C(=O)N[C@@H](Cc1ccc(O)cc1)C(=O)N[C@@H](CC(C)C)C(=O)N[C@@H](CCC(N)=O)C(=O)N[C@@H](CO)C(=O)N[C@H](C(=O)N[C@@H](CCCCNC(=N)N)C(=O)N[C@@H](CC(N)=O)C(=O)N[C@@H](CCCCNC(=N)N)C(=O)N[C@@H](CCCCNC(=N)N)C(=O)N[C@@H](Cc1ccc(O)cc1)C(=O)NCC(=O)NCC(=O)N1CCC[C@H]1C(=O)N[C@@H](CO)C(=O)N[C@@H](CO)C(=O)NCC(=O)N[C@@H](C)C(=O)N1CCC[C@H]1C(=O)N1CCC[C@H]1C(=O)N1CCC[C@H]1C(=O)N[C@@H](CO)C(=O)O)[C@@H](C)CC)C(C)C)[C@@H](C)O)[C@@H](C)O)C(C)C [Agonist P338] | 36.61% | > 3000 nM | 0.07 nM | 0.76 nM | 0.46 nM |  |  |  |  |
| CCCCCC(=O)N[C@@H](Cc1c[nH]cn1)C(=O)N[C@@H](CO)C(=O)N[C@@H](CC(=O)O)C(=O)N[C@@H](C)C(=O)N[C@H](C(=O)N[C@@H](Cc1ccccc1)C(=O)N[C@H](C(=O)N[C@@H](CC(=O)O)C(=O)N[C@@H](CC(N)=O)C(=O)N[C@@H](Cc1ccc(O)cc1)C(=O)N[C@H](C(=O)N[C@@H](CCCNC(=N)N)C(=O)N[C@@H](CC(C)C)C(=O)N[C@@H](CCCNC(=N)N)C(=O)NC(C)(C)C(=O)N[C@@H](CCC(N)=O)C(=O)N[C@H](C(=O)N[C@@H](C)C(=O)N[C@@H](C)C(=O)NC(C)(C)C(=O)N[C@@H](CCCCN)C(=O)N[C@@H](Cc1ccc(O)cc1)C(=O)N[C@@H](CC(C)C)C(=O)N[C@@H](CCC(N)=O)C(=O)N[C@@H](CO)C(=O)N[C@H](C(=O)N[C@@H](CCCN)C(=O)N[C@@H](CCCN)C(=O)NCC(=O)NCC(=O)N1CCC[C@H]1C(=O)N[C@@H](CO)C(=O)N[C@@H](CO)C(=O)NCC(=O)N[C@@H](C)C(=O)N1CCC[C@H]1C(=O)N1CCC[C@H]1C(=O)N1CCC[C@H]1C(=O)N[C@@H](CO)C(=O)O)[C@@H](C)CC)C(C)C)[C@@H](C)O)[C@@H](C)O)C(C)C [Agonist P352] | 45.09% | > 3000 nM | 0.09 nM | 0.6 nM | 0.14 nM | 2.2% |  |  |  |
| Hexanoyl-HSDAVFTDNYTRLR[Aib]KVAA[Aib]KYLQSIKNKRYGGPSSGAPPPS [Agonist P321] |  | 429 nM | 0.04 nM | 0.29 nM | 0.38 nM |  |  |  |  |
| Hexanoyl-HSDAVFTDNYTRLR[Aib]QKAA[Aib]KYLQSIKNKRYGGPSSGAPPPS [Agonist P323] | 16.81% | > 3000 nM | 0.07 nM | 0.32 nM | 0.23 nM |  |  |  |  |
| B1 |  |  |  |  |  |  | 0.5 nM | 0.04 nM | 0.22 nM |
| B2 |  |  |  |  |  |  | 4.41 nM | 0.07 nM | 0.23 nM |
| B3 |  |  |  |  |  |  | 4.35 nM | 0.09 nM | 0.14 nM |
| B4 |  |  |  |  |  |  | 4.01 nM | 0.1 nM | 0.1 nM |
| B5 |  |  |  |  |  |  | 0.44 nM | 0.07 nM | 0.18 nM |
| B6 |  |  |  |  |  |  | 3.71 nM | 0.04 nM | 0.17 nM |
| B7 |  |  |  |  |  |  | 5.16 nM | 0.07 nM | 0.46 nM |
| B8 |  |  |  |  |  |  | 4.53 nM | 0.09 nM | 0.21 nM |
| B9 |  |  |  |  |  |  | 9.74 nM | 0.09 nM | 0.26 nM |
| B10 |  |  |  |  |  |  | 1.46 nM | 0.04 nM | 0.24 nM |

Source: US20080026996A1, “Selective Vpac2 Receptor Reptide Agonists” (ELI LILLY AND COMPANY, priority 2004, published 2008)
